In patent US11780927B2, “Anti-CD40 antibodies for use in prevention of graft rejection” (NOVARTIS AG, priority 2018, dated 2023):
“And” between values parts separate entries of the source, which are not always exact repeats. Equal entries are not always repeated. Each block holds one molecule with its values, some of them ahead of it.

Legend:
[1] = tested on: CD20pos B cells; experiment: In vitro B cell depletion in human whole blood; type: cell-based; details: 72 hours; Rituximab 50 μg/ml, CFZ533 dose titration
Description: See supplementary material for detailed methods. Briefly, the ability of CFZ533 to mediated depletion of CD20^pos B cells was monitored in human whole blood over a period of three days in comparison to the B cell depleting antibody Rituximab. For CDC, CFZ533 or Rituximab were incubated with RAJI B cells in the presence or absence of rabbit complement and cell lysis was assessed by luminescence.
B cells numbers were determined based on CD45pos and CD19pos events falling within lymphocyte FSC (forward-scattered light)/SSC (side-scattered light) gate. Results for individual antibody concentrations were calculated as percent remaining B cells with reference to untreated samples and graphed as a function of log-transformed antibody concentration (adjusted to 100% and shown as a dotted line). Data represent the mean and SD of eight independent donors. […] Concentration dependent killing of the Raji cells was analyzed after 2 hours, where the viability of the cells was measured by determination of the ATP concentration in each well using luciferase. Results are presented as isotype-control normalized relative luciferase units (RLU) as a function of log-transformed antibody concentration.

[2] = molecular target: recombinant human CD40 (Homo sapiens, UniProt P25942); experiment: Surface plasmon resonance analysis of affinity for CD40; type: binding; details: SPR, 25° C.
Sequence of recombinant human CD40 (P25942 21-277): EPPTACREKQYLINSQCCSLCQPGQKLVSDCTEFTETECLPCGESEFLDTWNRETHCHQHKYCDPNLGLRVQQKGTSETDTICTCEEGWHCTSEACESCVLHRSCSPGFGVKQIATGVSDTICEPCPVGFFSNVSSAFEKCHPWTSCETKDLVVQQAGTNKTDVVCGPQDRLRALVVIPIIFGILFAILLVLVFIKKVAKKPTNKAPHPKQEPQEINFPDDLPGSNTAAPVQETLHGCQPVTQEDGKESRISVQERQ
Description: The binding analyses of recombinant CFZ533 were performed at 25° C. with HBS−EP+ as running buffer. A typical binding analysis cycle consisted of three steps: (i) capture of the antibody via ProteinA immobilized on the chip surface, (ii) binding of CD40 antigen to the captured anti-CD40 antibody, and (iii) regeneration of the ProteinA surface. To determine the kinetic rate constants of the antigen-antibody binding interactions, binding data were processed, double referenced with responses from blank injections. The binding curves were fitted locally using the 1:1 interaction model of the Biacore T100 Evaluation software to determine kinetic rate constants. The value for the equilibrium dissociation constant (KD) was calculated as the ratio of the rate constants kd/ka. All binding measurements were performed in two independent experiments.

[3] = tested on: transplanted kidney grafts; experiment: Allograft biopsies scored by Chronic Allograft Damage Index (CADI); type: in vivo, human; details: final biopsy
From the text: The quality of the graft was estimated using the Chronic Allograph Damage Index (CADI) (Isoniemi et al. 1992 and 1994), where scores of ≤1 reflects normal renal histology and higher scores correlate with poor long-term outcome (Hayry et al. 2004, Yilmaz et al. 2007, Yilmaz et al. 2003). Pristine renal histology was found in 3 of 5 patients on iscalimab (60%) and in none of the 7 treated with tacrolimus (0%). The average CADI was 1.60±0.60 for CFZ533 (n=5) vs. 5.14±0.80 for tacrolimus (n=7), (mean±SEM, p<0.01 using Student t)
A PoC Study in de Novo Renal Transplantation (CCFZ533X2101/NCT02217410) using CFZ533 was performed. […] Allograft biopsies were performed on a subset of study patients. A pathologist, blinded to therapy, reviewed and scored all biopsy slides using the established Banff criteria and calculated the chronic allograft damage index (CADI, Nickerson P et al., Legendre C et al., Seron D et al.,). A CADI of 1 or less was considered as ‘normal renal histology’. Two patients were excluded from the analysis, since they switched therapy after only 2 months. […] The average CADI at final biopsy was 1.6±0.6 for CFZ533 and 5.1±0.8 for tacrolimus, p<0.01.

[4] = tested on: human B cell line RI-1; experiment: Internalization by image flow cytometry; type: cell-based; details: 3 hours at 37° C.
Description: Internalization of fluorescently tagged CFZ533 and rCD154 was assessed in vitro using the human B cell line RI-1 (Th'ng et al, 1987). CD40 dependence of CFZ533 internalization was assessed using a CD40 knockout RI-1 cell line. Internalization was assessed using an Amnis® image flow cytometer (Merck KHaA, Darnstadt) according to the manufacturer's instructions and data analyzed using ImageStream®^X software.
FIG. 8B. Relative internalization erode of CFZ533 and rCD154 under permissive conditions (non-permissive erode values subtracted). Each dot represents data from an individual experiment and the population mean is indicated as a horizontal red line. FIG. 8C. Representative images of individual CD40 expressing or CD40 knock-out RI-1 cells cultured with Alexa488 labeled CFZ533 for 3 hours at 37° C. In all experiments, cells were co-stained with AlexaFlour 647 labeled CD45 to demark the cell membrane.

Molecule: Rituximab: depleting anti-CD20 antibody [reference compound]
B cells eliminated in human whole blood [1]: approximately 80%

ka [1/Ms] [2]: 2.84 ± 0.67 × 10^5 1/Ms
kd [1/s] [2]: 1.26 ± 0.03 × 10^−4 1/s
Molecule: HCD122: parental antibody, wild-type IgG1 version of CFZ533 [reference compound]

Molecule: C=CC[C@@H]1/C=C(\C)C[C@H](C)C[C@H](OC)[C@H]2O[C@@](O)(C(=O)C(=O)N3CCCC[C@H]3C(=O)O[C@H](/C(C)=C/[C@@H]3CC[C@@H](O)[C@H](OC)C3)[C@H](C)[C@@H](O)CC1=O)[C@H](C)C[C@@H]2OC [tacrolimus, reference compound]
average CADI (mean±SEM) [3]: 5.14±0.80 and 5.1±0.8

B1: rCD154: recombinant human CD154, the CD40 ligand (protein)
chain: MQKGDQNPQIAAHVISEASSKTTSVLQWAEKGYYTMSNNLVTLENGKQLTVKRQGLYYIYAQVTFCSNREASSQAPFIASLCLKSPGRFERILLRAANTHSSAKPCGQQSIHLGGVFELQPGASVFVNVTDPSQVSHGTGFTSFGLLKL
Internalization by RI-1 B cells [4]: internalized
